Numbering of substitutions follows the chain as printed. Numbers in names are those of the source.

Here are results for eleven molecules from patent publication US20250327097A1, “ORGANISMS PRODUCING LESS CROTONIC ACID” (Global Bioenergies, priority 2021, published 2025).

To fix the notation:
B1: N388M-K394R-C430N-L432F-L434W-S436N-H444L (protein)
chain: MFLKSLREQINLLKRQGDLRIINRPVDSYLEAAAIIRRSTETKAPVPLMTNIKGYPGCSIVGGLAALSSNPEYPLSRVAMSLGLSTTASAQSIVQYLIDGLKKTPYLPVEIDSNSAPCKQNILRGEDASLAHFPIPQVHQHDGNRYVNTWGVFIVESPDGQWCNWSIQRVQYLNDRQMIALVFPSQHISDIWEEWVKIGKPMPYALVQGCEPIVPYIAGLPLLERNVNEAEYIGALYGKGIEVVKCETHDLRVPASSEVVIEGYFAITREGVEGPFGEFAGYIPNENSLQPILSITAISWQDDPIWPVVAEGKPVDEYHTCSGIGDAAAIQNVLLTANLPVSFVWVPLYSACHLMIVSINRHWRQTHPDLTSEQLTKKVGDVIHQTRMSIKLPRIVVLDDDVDPADTESLLWALATRIHPERKRYFYESNIFPWLNCYSEEERLNRKGKRVIIDALLPENHGAISSFDYAYPDDIKQRVLMHWETDFSHD
B2: I283T-P284D-N285L-N287T-S322T-N388M-K394R-C430A-L432F-L434W-S436N-G462P-A463P (protein)
chain: B1 chain with I283T, P284D, N285L, N287T, S322T, N430A, L444H, G462P, A463P
B3: I283T-P284D-N285M-E286H-N287T-S322T-N388M-K394R-C430A-L432F-L434W-S436N-G462P-A463P (protein)
chain: B1 chain with I283T, P284D, N285M, E286H, N287T, S322T, N430A, L444H, G462P, A463P
B4: I283T-P284D-N285M-E286N-N287T-S322T-N388M-K394R-C430A-L432F-L434W-S436N-G462P-A463P (protein)
chain: B1 chain with I283T, P284D, N285M, E286N, N287T, S322T, N430A, L444H, G462P, A463P
B5: I283T-P284D-N285M-N287T-L289Q-S322T-N388M-K394R-C430A-L432F-L434W-S436N-G462P-A463P (protein)
chain: B1 chain with I283T, P284D, N285M, N287T, L289Q, S322T, N430A, L444H, G462P, A463P
B6: I283T-P284D-N285M-N287T-S288T-S322T-N388M-K394R-C430A-L432F-L434W-S436N-G462P-A463P (protein)
chain: B1 chain with I283T, P284D, N285M, N287T, S288T, S322T, N430A, L444H, G462P, A463P
B7: I283T-P284D-N285S-N287T-S322T-N388M-K394R-C430A-L432F-L434W-S436N-G462P-A463P (protein)
chain: B1 chain with I283T, P284D, N285S, N287T, S322T, N430A, L444H, G462P, A463P
B8: I283T-P284D-N285M-E286G-N287T-S322T-N388M-K394R-C430A-L432F-L434W-S436N-G462P-A463P (protein)
chain: B1 chain with I283T, P284D, N285M, E286G, N287T, S322T, N430A, L444H, G462P, A463P
B9: I283T-P284D-N285T-N287T-S322T-N388M-K394R-C430A-L432F-L434W-S436N-G462P-A463P (protein)
chain: B1 chain with I283T, P284D, N285T, N287T, S322T, N430A, L444H, G462P, A463P
B10: I283T-P284D-N285M-E286D-N287T-S322T-N388M-K394R-C430A-L432F-L434W-S436N-G462P-A463P (protein)
chain: B1 chain with I283T, P284D, N285M, E286D, N287T, S322T, N430A, L444H, G462P, A463P
B11: I283T-P284D-N285M-E286A-N287T-S322T-N388M-K394R-C430A-L432F-L434W-S436N-G462P-A463P (protein)
chain: B1 chain with I283T, P284D, N285M, E286A, N287T, S322T, N430A, L444H, G462P, A463P

This experiment has as its system 3-methylcrotonic acid. Format: biochemical, Yersinia frederiksenii. The arrangement: key: “+” representing a low increase in activity; “++++” representing a high increase in activity.
For B1, the “Activity relative to WT” value is listed as “+”.

As to B2, the “Activity relative to WT” value is given as “++++”.

B3: the “Activity relative to WT” value is “++++”.

Turning to B4, the “Activity relative to WT” value is on record as “++++”.

Take B5: the “Activity relative to WT” value was “++++”.

With B6, the “Activity relative to WT” value was “++++”.

Regarding B7, the “Activity relative to WT” value is on record as “++++”.

Take B8: the “Activity relative to WT” value is on record as “++++”.

As to B9, the “Activity relative to WT” value was “++++”.

On to B10, for which the “Activity relative to WT” value is listed as “++++”.

For the molecule B11, the “Activity relative to WT” value is listed as “++++”.
